Assay results reported in EP4814014A1, “BINDING MOLECULE AND ANTIBODY-DRUG CONJUGATE AND USE THEREOF” (priority 2023, dated 2025).

How the values were obtained:
[1] = target: T1, cynomolgus monkey EGFR-his (ECD, Met1-Ser645) (cynomolgus monkey, UniProt A0A2K5WK39 1-645); assay: SPR, antigen amine-coupled on GLM chip, antibody injected, 1:1 model
T1 construct: range 1-645; Bought; range as printed includes Met1

[2] = target: T2, human EGFR-his (ECD, Met1-Ser645) (human, UniProt P00533 25-645); assay: as above
T2 construct: range 1-645; Bought; range as printed includes Met1

[3] = target: T3, human cMet-his (ECD, Met1-Thr932) (human, UniProt P08581 25-932); assay: as above
T3 construct: Bought; range as printed includes Met1
T3 sequence (P08581 25-932): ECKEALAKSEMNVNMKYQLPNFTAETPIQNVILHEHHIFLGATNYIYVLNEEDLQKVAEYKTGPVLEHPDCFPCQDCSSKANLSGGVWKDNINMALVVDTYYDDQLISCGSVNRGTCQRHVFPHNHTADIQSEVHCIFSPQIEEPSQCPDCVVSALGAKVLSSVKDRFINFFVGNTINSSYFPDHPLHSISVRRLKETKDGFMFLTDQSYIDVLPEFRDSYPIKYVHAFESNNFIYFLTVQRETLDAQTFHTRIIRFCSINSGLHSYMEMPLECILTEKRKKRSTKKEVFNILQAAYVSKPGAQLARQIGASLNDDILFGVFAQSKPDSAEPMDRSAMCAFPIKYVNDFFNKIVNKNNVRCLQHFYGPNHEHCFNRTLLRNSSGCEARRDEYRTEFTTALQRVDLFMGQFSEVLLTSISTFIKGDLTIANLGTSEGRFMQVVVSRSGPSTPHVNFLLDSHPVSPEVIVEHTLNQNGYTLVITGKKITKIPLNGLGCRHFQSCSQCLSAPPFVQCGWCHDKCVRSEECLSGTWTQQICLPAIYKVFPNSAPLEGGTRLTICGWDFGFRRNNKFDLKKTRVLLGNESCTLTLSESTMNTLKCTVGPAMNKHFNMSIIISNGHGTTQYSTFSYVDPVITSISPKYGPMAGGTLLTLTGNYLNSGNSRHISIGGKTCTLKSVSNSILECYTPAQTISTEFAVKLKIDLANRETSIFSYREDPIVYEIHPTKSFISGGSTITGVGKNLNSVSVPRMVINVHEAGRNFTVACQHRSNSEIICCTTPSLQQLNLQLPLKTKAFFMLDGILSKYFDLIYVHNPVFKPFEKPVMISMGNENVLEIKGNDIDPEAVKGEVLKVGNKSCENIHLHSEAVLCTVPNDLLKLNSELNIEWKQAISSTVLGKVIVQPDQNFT

[4] = target: T4, cynomolgus monkey cMet-his (ECD, Met1-Thr932) (cynomolgus monkey, UniProt A0A2K5UM36 25-932); assay: as above
T4 construct: Bought; range as printed includes Met1
T4 sequence (A0A2K5UM36 entry or part of it limits assumed, form in doubt): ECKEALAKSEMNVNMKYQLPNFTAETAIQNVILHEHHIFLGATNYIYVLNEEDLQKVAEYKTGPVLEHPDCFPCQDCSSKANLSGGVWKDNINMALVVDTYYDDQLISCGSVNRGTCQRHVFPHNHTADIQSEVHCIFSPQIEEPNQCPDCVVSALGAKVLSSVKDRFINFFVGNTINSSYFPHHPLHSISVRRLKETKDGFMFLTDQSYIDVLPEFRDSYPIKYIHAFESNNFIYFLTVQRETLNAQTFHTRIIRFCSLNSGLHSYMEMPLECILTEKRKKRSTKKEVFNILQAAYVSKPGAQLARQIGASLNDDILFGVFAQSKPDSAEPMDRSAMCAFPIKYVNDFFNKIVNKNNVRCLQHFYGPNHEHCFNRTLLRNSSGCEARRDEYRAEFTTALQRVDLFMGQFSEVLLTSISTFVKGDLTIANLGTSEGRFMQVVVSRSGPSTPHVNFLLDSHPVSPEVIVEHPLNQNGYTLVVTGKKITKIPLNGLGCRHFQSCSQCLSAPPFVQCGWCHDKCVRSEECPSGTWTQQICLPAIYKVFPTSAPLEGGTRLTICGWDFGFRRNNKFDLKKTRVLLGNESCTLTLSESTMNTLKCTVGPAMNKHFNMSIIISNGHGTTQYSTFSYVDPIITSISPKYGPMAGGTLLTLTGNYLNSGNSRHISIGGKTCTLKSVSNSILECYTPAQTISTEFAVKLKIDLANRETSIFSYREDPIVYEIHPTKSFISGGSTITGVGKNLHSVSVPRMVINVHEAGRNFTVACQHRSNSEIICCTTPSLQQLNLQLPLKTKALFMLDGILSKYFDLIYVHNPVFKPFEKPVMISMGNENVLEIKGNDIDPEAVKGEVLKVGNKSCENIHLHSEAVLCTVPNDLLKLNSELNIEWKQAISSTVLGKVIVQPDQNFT

human EGFR on cells [5] = target: T5, human EGFR on cells (human, UniProt P00533 25-1210); assay: FACS, VHH-His on CHOK1-huEGFR cells
T5 construct: whole, on cells; the cell line is named under assay; also called CHO-S-EGFR; CHOK1-huEGFR

human EGFR on cells [6] = target: T5, human EGFR on cells; assay: FACS, VHH-His on MDA-MB-468 cells

Kd [1] [nM] | koff [1] [s⁻¹] | kon [1] [M⁻¹ s⁻¹] | Kd [2] [nM] | koff [2] [s⁻¹] | kon [2] [M⁻¹ s⁻¹] | Kd [3] [nM] | koff [3] [s⁻¹] | kon [3] [M⁻¹ s⁻¹] | Kd [4] [nM] | koff [4] [s⁻¹] | kon [4] [M⁻¹ s⁻¹] | Maximum MFI value (human EGFR on cells [5]) [MFI] | EC50 (human EGFR on cells [5]) [nM] | EC50 (human EGFR on cells [6]) [nM] | Maximum MFI value (human EGFR on cells [6]) [MFI] | Binder
37.4 | 0.0162 | 433000 | 48.9 | 0.0135 | 276000 | 2.72 | 0.000825 | 304000 | 1.91 | 0.000381 | 200000 |  |  |  |  | V-13 (10A1-9A2-7A12) (bispecific antibody, Single-chain trispecific anti-EGFR/cMet antibody) QVQLVESGGGLVQAGGSLRLSCAASGRTGSLHAMGWFRQAPGKERERVATLNLSDGSAVTADSVKGRFTISTDNTKNSVYLQMNSLKPEDTAVYYCTASRSPSGIRYYKPDYWGQGTQVTVSSGGGGSQSQLAESGGGLVQSGGSLGLSCVASGFTISRSIMSWYRQPPGKERDWVASIGSAGNTNYVDSVKGRFTISRDVAKNTVYLQMNSLKPEDTAVYYCKTTLAVSFSEYWGQGTQVTVSSGGGGSGGGGSEVQLVESGGGLVQAGGSLRLSCVASGNIFSSNHMGWFRQAPGKQREFIAYITTREITNYADSVKGRFTISRDNTKNTVYLQMNVLKPEDTAVYYCIADQSREIRRSWGQGTQVTVSS
 |  |  |  |  |  |  |  |  |  |  |  | 3570 |  |  |  | pzn10A1_m6m5 (VHH, not shown: small tags and cut ends) VHH: QVQLVESGGGLVQPGGSLRLSCAASGRTGSLHAMGWFRQAPGKERERVATLNLSDVSAVTADSVKGRFTISTDNSKNSVYLQMNSLRAEDTAVYYCTASRSPSGIRYYKPDYWGQGTLVTVSS
 |  |  |  |  |  |  |  |  |  |  |  | 4770 |  |  |  | ppzn10A1_m6m5.m3 (VHH, not shown: small tags and cut ends) VHH: QVQLVESGGGLVQPGGSLRLSCAASGRTGSLHAMGWFRQAPGKERERVATLQLSDVSAVTADSVKGRFTISTDNSKNSVYLQMNSLRAEDTAVYYCTASRSPSGIRYYKPDYWGQGTLVTVSS
 |  |  |  |  |  |  |  |  |  |  |  | 2470 |  |  |  | ppzn10A1_m6m5.m1 (VHH, not shown: small tags and cut ends) VHH: QVQLVESGGGLVQPGGSLRLSCAASGRTGSLHAMGWFRQAPGKERERVATLRLSDVSAVTADSVKGRFTISTDNSKNSVYLQMNSLRAEDTAVYYCTASRSPSGIRYYKPDYWGQGTLVTVSS
 |  |  |  |  |  |  |  |  |  |  |  | 84300 | 3.94 | 2.49 | 95800 | zn9B8.m2 (VHH, not shown: small tags and cut ends, Humanized anti-EGFR VHH-His) VHH: EVQLLESGGGLVQPGGSLRLSCAASGLTFSYYAMAWFRQAPGKEREFVAAINWNGGNTYNTDSVKGRFTISRDNSKNTVYLQMNSLTPEDTAVYYCAVRYNSASYLVARSSDYNYWGQGTLVTVSS

Second part, the binder before the results:

Binder | Kd [1] [nM] | koff [1] [s⁻¹] | kon [1] [M⁻¹ s⁻¹] | Kd [2] [nM] | koff [2] [s⁻¹] | kon [2] [M⁻¹ s⁻¹] | Kd [3] [nM] | koff [3] [s⁻¹] | kon [3] [M⁻¹ s⁻¹] | Kd [4] [nM] | koff [4] [s⁻¹] | kon [4] [M⁻¹ s⁻¹] | Maximum MFI value (human EGFR on cells [5]) [MFI] | EC50 (human EGFR on cells [5]) [nM] | EC50 (human EGFR on cells [6]) [nM] | Maximum MFI value (human EGFR on cells [6]) [MFI]
V-1 (5B10-9A2-7A12) (bispecific antibody, Single-chain trispecific anti-EGFR/cMet antibody) AVQLVDSGGGLVQPGGSLRLDCSASGTIIGTYTMAWYRQAPGKQREMVAIITPGGGSHHADSVKGRFTISRDNGKSTVYLQMSSLKFEDTAVYYCNAKARWGTTEYWGQGTQVTVSSGGGGSQSQLAESGGGLVQSGGSLGLSCVASGFTISRSIMSWYRQPPGKERDWVASIGSAGNTNYVDSVKGRFTISRDVAKNTVYLQMNSLKPEDTAVYYCKTTLAVSFSEYWGQGTQVTVSSGGGGSGGGGSEVQLVESGGGLVQAGGSLRLSCVASGNIFSSNHMGWFRQAPGKQREFIAYITTREITNYADSVKGRFTISRDNTKNTVYLQMNVLKPEDTAVYYCIADQSREIRRSWGQGTQVTVSS | 27.8 | 0.00206 | 74100 | 31.7 | 0.00354 | 112000 | 9.81 | 0.00132 | 135000 | 6.43 | 0.000855 | 133000 |  |  |  | 
V-9 (9B8-7A12-9A2) (bispecific antibody, Single-chain trispecific anti-EGFR/cMet antibody) QVQLVESGGGLVQPGGSLRLSCAASGLTFSYYAMAWFRQAPGKEREFVAAINWNGGNTYNTDSVKGRFTISRDNAKNTVYLQMNSLKPEDTAVYYCAVRYNSASYLVARSSDYNYWGQGTLVTVSSGGGGSEVQLVESGGGLVQAGGSLRLSCVASGNIFSSNHMGWFRQAPGKQREFIAYITTREITNYADSVKGRFTISRDNTKNTVYLQMNVLKPEDTAVYYCIADQSREIRRSWGQGTQVTVSSGGGGSGGGGSQSQLAESGGGLVQSGGSLGLSCVASGFTISRSIMSWYRQPPGKERDWVASIGSAGNTNYVDSVKGRFTISRDVAKNTVYLQMNSLKPEDTAVYYCKTTLAVSFSEYWGQGTQVTVSS | 0.0255 | 1.95e-06 | 76400 | 0.0027 | 2.35e-07 | 86900 | 14.4 | 0.00167 | 116000 | 10.2 | 0.0011 | 108000 |  |  |  | 
V-3 (5B10-7A12-9A2) (bispecific antibody, Single-chain trispecific anti-EGFR/cMet antibody) AVQLVDSGGGLVQPGGSLRLDCSASGTIIGTYTMAWYRQAPGKQREMVAIITPGGGSHHADSVKGRFTISRDNGKSTVYLQMSSLKFEDTAVYYCNAKARWGTTEYWGQGTQVTVSSGGGGSEVQLVESGGGLVQAGGSLRLSCVASGNIFSSNHMGWFRQAPGKQREFIAYITTREITNYADSVKGRFTISRDNTKNTVYLQMNVLKPEDTAVYYCIADQSREIRRSWGQGTQVTVSSGGGGSGGGGSQSQLAESGGGLVQSGGSLGLSCVASGFTISRSIMSWYRQPPGKERDWVASIGSAGNTNYVDSVKGRFTISRDVAKNTVYLQMNSLKPEDTAVYYCKTTLAVSFSEYWGQGTQVTVSS | 21.8 | 0.00246 | 112000 | 25.1 | 0.003 | 119000 | 8.61 | 0.00158 | 183000 | 5.99 | 0.00106 | 176000 |  |  |  | 
